What was measured:
Assay in all cases: cell-based or functional assay
HaloTag[22-297](M2F)-FRB = HaloTag[22-297](M2F)-FRB (UniProt P42345)
[1] = biological target: HaloTag[22-297](Q145H+P154R)-FRB (UniProt P42345)
[2] = biological target: HT(23-297)-FRB fragment fused to LgBiT (UniProt P42345)
HT(146-297)-FRB = HT(146-297)-FRB (UniProt P42345)
HT(158-297)-FRB = HT(158-297)-FRB (UniProt P42345)
[196-297]-FRB = [196-297]-FRB (UniProt P42345)
Sequence of [196-297]-FRB (P42345 other isoform, or with tags, fused parts or gaps limits assumed): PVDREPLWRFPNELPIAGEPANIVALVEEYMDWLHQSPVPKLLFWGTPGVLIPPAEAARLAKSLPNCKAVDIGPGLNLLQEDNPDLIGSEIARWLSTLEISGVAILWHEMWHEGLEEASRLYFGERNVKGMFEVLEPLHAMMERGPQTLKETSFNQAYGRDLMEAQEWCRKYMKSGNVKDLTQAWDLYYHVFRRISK

Sequence of EGFP-FKBP-HaloTag[3-19] (P62942 other isoform, or with tags, fused parts or gaps): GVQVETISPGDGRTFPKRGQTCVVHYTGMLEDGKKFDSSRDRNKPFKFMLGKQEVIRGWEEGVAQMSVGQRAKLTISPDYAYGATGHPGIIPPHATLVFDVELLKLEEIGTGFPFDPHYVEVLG
Sequence of HaloTag[22-297](Q145H+P154R)-FRB (P42345 other isoform, or with tags, fused parts or gaps Q145H P154R Q145H P154R): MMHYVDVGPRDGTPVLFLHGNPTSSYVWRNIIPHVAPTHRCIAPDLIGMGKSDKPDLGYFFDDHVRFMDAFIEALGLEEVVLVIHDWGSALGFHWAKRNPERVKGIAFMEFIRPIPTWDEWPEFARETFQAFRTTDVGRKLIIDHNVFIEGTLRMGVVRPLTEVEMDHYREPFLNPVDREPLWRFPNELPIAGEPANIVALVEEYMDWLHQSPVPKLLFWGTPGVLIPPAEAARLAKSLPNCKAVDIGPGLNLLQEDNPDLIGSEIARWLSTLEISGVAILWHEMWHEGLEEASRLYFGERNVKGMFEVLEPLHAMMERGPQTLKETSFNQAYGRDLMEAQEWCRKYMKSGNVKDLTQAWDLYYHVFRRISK
Sequence of HT(23-297)-FRB fragment fused to LgBiT (P42345 other isoform, or with tags, fused parts or gaps): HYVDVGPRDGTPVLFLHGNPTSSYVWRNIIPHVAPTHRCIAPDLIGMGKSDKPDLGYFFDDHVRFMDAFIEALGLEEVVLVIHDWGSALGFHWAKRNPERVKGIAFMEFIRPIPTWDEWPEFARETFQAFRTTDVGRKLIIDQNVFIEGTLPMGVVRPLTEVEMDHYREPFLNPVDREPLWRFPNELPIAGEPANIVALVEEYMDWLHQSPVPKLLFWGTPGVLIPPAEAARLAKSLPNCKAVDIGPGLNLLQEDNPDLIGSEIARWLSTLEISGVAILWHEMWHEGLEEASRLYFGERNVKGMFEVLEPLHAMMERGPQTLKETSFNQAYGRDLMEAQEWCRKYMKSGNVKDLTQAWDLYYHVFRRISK
Sequence of FKBP-HT(1-33) fragment as SmBiT or HiBiT fragment fusions (P62942 other isoform, or with tags, fused parts or gaps): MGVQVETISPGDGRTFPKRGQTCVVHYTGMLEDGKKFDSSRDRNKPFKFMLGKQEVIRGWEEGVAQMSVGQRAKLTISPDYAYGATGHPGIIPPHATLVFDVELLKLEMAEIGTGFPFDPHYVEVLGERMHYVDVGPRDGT
Sequence of [1-195]-FKBP (P62942 other isoform, or with tags, fused parts or gaps): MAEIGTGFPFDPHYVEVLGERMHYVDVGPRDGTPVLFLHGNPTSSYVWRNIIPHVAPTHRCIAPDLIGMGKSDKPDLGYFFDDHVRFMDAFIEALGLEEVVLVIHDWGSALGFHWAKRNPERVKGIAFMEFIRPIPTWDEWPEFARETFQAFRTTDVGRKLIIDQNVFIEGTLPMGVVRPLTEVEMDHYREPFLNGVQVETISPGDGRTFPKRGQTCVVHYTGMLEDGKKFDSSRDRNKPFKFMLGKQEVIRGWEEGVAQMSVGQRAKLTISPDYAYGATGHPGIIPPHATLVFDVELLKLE
Sequence of HaloTag[22-297](M2F)-FRB (P42345 other isoform, or with tags, fused parts or gaps): as the sequence (P42345 other isoform, or with tags, fused parts or gaps Q145H P154R Q145H P154R) above, with M2F, H145Q, R154P counted along it
Sequence of HT(158-297)-FRB (P42345 other isoform, or with tags, fused parts or gaps limits assumed): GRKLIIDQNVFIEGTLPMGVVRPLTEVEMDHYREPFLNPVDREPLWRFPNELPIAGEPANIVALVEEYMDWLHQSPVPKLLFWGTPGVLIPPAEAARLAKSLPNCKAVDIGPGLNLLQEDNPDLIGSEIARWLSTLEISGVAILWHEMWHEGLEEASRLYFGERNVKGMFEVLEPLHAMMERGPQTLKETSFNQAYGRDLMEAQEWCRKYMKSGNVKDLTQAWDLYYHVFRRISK
Sequence of HT(1-157)-FKBP (P62942 other isoform, or with tags, fused parts or gaps): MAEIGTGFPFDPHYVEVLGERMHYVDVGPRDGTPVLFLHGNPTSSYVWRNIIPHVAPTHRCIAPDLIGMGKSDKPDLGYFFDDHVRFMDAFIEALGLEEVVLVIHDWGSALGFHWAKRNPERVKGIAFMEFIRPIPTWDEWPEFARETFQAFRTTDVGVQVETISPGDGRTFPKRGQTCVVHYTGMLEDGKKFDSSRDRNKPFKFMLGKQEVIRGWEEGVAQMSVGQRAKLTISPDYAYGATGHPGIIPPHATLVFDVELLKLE
Sequence of HT(146-297)-FRB (P42345 other isoform, or with tags, fused parts or gaps limits assumed): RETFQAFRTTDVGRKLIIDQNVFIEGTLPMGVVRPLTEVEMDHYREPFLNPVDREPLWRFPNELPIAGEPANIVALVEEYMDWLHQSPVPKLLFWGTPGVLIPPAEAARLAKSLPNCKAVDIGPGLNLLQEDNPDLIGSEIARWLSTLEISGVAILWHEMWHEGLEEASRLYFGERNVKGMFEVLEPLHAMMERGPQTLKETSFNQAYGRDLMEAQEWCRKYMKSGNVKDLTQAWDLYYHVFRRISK
Sequence of HT(1-145)-FKBP (P62942 other isoform, or with tags, fused parts or gaps): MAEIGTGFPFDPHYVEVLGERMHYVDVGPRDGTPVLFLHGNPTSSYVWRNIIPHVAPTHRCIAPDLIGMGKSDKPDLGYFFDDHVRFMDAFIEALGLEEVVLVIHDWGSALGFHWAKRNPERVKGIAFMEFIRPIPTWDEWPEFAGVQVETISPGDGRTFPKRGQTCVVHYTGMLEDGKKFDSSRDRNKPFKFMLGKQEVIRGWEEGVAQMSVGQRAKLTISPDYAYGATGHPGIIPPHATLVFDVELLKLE

Substance: EGFP-FKBP-HaloTag[3-19] (from UniProt P62942 2-108)
- S:B ratio in +rapamycin/-rapamycin conditions, live HeLa imaging (HaloTag[22-297](M2F)-FRB): 6.7
- signal-to-background ratio, complemented split HaloTag with rapamycin over the large HaloTag alone (HaloTag[22-297](M2F)-FRB): 16
- S:B ratio in +rapamycin/-rapamycin conditions, live HeLa imaging [1]: 4
- fold response of JF646 fluorescence to rapamycin, live HeLa imaging [1]: 25 fold
- signal-to-background ratio, complemented split HaloTag with rapamycin over the large HaloTag alone [1]: 5.7

Substance: FKBP-HT(1-33) fragment as SmBiT or HiBiT fragment fusions (from UniProt P62942 1-108)
- fold increase in NanoBiT luminescence on addition of rapamycin [2]: 100 to 250 fold

Substance: HT(1-145)-FKBP (from UniProt P62942 2-108)
- fold increase of JF646 and JF585 fluorescence in live HeLa cells with 50 nM rapamycin (HT(146-297)-FRB): < 2 fold

Substance: HT(1-157)-FKBP (from UniProt P62942 2-108)
- fold increase of JF646 and JF585 fluorescence in live HeLa cells with 50 nM rapamycin (HT(158-297)-FRB): < 2 fold

Substance: [1-195]-FKBP (from UniProt P62942 2-108)
- fold increase in JF646 fluorescence with 50 nM rapamycin (E. coli lysates) ([196-297]-FRB): 4.7 fold
- fold increase of JF646 and JF585 fluorescence in live HeLa cells with 50 nM rapamycin ([196-297]-FRB): < 2 fold
